Data taken from the nanobody polyreactivity screen of Harvey et al. (2022).

Test: yeast display, Sf9 membrane polyspecificity reagent, FACS + sequencing; frameworks hold sequencing errors
Method in brief: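 After 36–48 hours of galactose induction, yeast (Saccharomyces cerevisiae BJ5465) displaying a synthetic nanobody library were stained at 4 °C for 1 hour with 10% biotinylated, detergent-solubilized Sf9 membrane reagent. Streptavidin microbeads enriched the stained cells before FACS sorting into low and high (top ~1%) gates on anti-HA and streptavidin fluorescence. Each clone's polyreactivity label reflects its gate of origin.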

Sequence	polyreactivity (PSR sort gate)
QVQLVESGGGIVQAGGSLRLSCAASGRIFYVNAMGWYRQSPGKERELVAAISRSGSSTYYADSVKGRFTISRDNAKNTVYLQMNSLKPEDTAVYYCAARYYGRSQHHFDYWGQGTQVTVSS	high polyreactivity
QVQLVESGGGLVQAGGSLRLICAASGRTFNPYAMGWYRQAPGKERELVAAISSGGNTNYADSVKGRFTISRDNAKNSVYLQMNSLKPEDTAVYYCATGLRWYHQLTGGYWGQGTQVTVSS	high polyreactivity
QVQLVESGGGLVQEGGSLRLSCAASGGTFAYAMGWYRQAPGKERELVAAITWRGGDTYADSVKGRFTISRDNAKNTVYLQMNSLKPEDTAVYYCAAEFRDVSSNGYDYWGQGTQVTVSS	low polyreactivity
QVQLQESGGGLVQAGGSLRLRCAASRNISGSSDLGWYHQAPGKEREFVASMTSGGTTYYADSVKGRFTISRDNAKISEYLQMNSLKPEDTAVYYCAVGDPADAEFGYWGQGTQVTVRS	low polyreactivity
QVQLVESGGGLVQAGGSLRLSCAASGFIFYQYAMGWYRQAPGKERELVAAISTRGGSTYYADSVKGRFTISRDNAKNTVYLQMNSLKPEDTAVYYCNVLKYLSPGTYDYDYWGQGTQVTVSS	high polyreactivity
QVQHVESGGRLVQAGGSLRLSWAASGRIFRVNAMGRYRQAPGKERELVAAINFSGTSTYFADSVKGRFTISRDNAKNTVYLQMNSLKPDDTAVYYCNALTTSNSGRFYYWGQGTQVTVSS	low polyreactivity
QVQLVESGGGLVQAGGSLRLSCAASGLTFTLNAMGWYRQAPGKERELVATISQDGGGTTYADSVKGRFTISRDNAKNTVYLQMNSLKPEDTAVYYCATTLPPSVWGEWSGTRYPYDYWGQGTQVTVSS	low polyreactivity
QVQLVESGGGLVQEGGSLRLSCAASGFIVNRYAMGWYRQAPGKERELVAAITGSGSRTYYADSVKGRFTISRDNAKNTVYLHMNSLKPEATAVYYCNTDRRPTADFGYWGQGTQVTVAS	high polyreactivity
QVQLVESGGGLVQAGGSLRLSCAASGSTFGYYAMGWYRQAPGKERELVAAISRGDSTNYADSVKGRFTISRDNAKNTVYLQMNSLKPEDTAVYYCAADQLNVCREYVEYDYWGQGTQVTVAS	low polyreactivity
QVQLVESGGGVVQAGGSLRLSCAASGGIFRRNAMGWYRQAPGKERELVAAITRSGASTYDADSVKGRFTISRDNAKYTVYLQMNSLKPEDTAVYYCADAQLSAEYDYWGQGTQVTVTS	low polyreactivity
QVQLVESGGGLVQAGGSLRLSCAASGSTFDRNVMGWYRQAPGKERELVAAISRVSSTNYADSVKGRFTISRDNAKNTVYLQMISLKPEDTAVYYCAVDNISNWAVENDYWGQGTQVTVSS	low polyreactivity
QVQLVESGGGLVQAGGSLSLSCAATAFTFTYYAMGWYRQAPGKERELVAAITYSGGTTYYADSVKGRFTISRDNAKNTVYLQMNSLKPEDTAVYYCAAVPYYVLARSFYRYGYWGQGTQVTVSS	low polyreactivity
QVQLVESGGGLVQAGGSLRLSCAASGRIFYEYAMGWYRQAPGKERELVAISTSGGNTYYADSVKGRFTISRDNAKNTVYLQMNSLKPEDTAVYYCAARLQYYPYYYWGQGTQVTVSS	high polyreactivity
QVQLVESGGGLVQAGGSLRLSCAASGRTFGLYAMGWYRQAPGKERELVAAMSYSGGSTYYADSVQGRFTISRDNAKNTVYLQMNSLKPEDTAVYYCAAVYYYASRTSKQPYYDWGQGTQVTVSS	high polyreactivity
QVQLVESGGGLVQAGGSLRLSCAASGFIFRYYAMGWYIQAPGKERELVATITRSGGSTYYADSVKGRFTLSRDNAKNTVYLQMNSLKPEDTAVYYCAADIYWYRGYGYWGQRTQVTVSS	high polyreactivity
QVQLVESGGGLVQAGGSLRLSCAASGSTFVYNAMGWYRQAPGKERELVAAITVSDGSTYYADSVKGRFTISRDNAKNTVYLQMNSLKPEDTAVYYCNADFPRKTRYEYWGQGTQVTVSS	low polyreactivity
QVQLVESGGGLVQSGGSLRLSCAAYGNFFANNSMGWYRQAPGKERELVAAISQSGGNTYYADSVKGRFTISRDNAKNTVYLQMNSLKPEDTADYYCNAKTYGYNYDSWGQGTQVTVSS	low polyreactivity
QDQHVESGGGLVHAGGSLRLSCAASGRIFKVYAMGWYRQPPGKERQLVASIRWNTGSTYYADSVKGRFTISRDNAKNTVYLQMNSLKPEDTAVYYCNSRGYYQGRYGYWGQGTQVTVSS	high polyreactivity
QVQLVESGGGLVQAGGSLRLSCAAYGSTLDGNAMGWYRQAPGKERELVAGLDTGGSTYYADSVKGRFTISRDNAKYTVYLQLIRLKPEDTAVYDCAATDREDYDYWGQGTQVTVSS	low polyreactivity
QVQLVESGGGLVQAGGSLRLSCAASGSILYGNDMGWYRQAPGKERELVATITSSDSTYYADSVKGRFTISRDNAKNTVYLQMNSLKPEDTAVYYCAADSSEWLLKDDYWGQGTQVTVSS	low polyreactivity
QVQLVESGGGLVQAGGSLRLSCAASGRILGLYAMGWYRQAPGKESELVAAISRGGGSTYYADSLKGRFTISRDNAKNTVYLQMNSLKPEDTAVYYCATGLGYFSRLDYWGQGTQVTVSS	low polyreactivity
QVQLVESGGGLVQAGGSLRLSCAASGSIFANAMGWYRQAPGKEREVVAAISFSGGRTFYADSVKGRFTISRDNAKNTVYLQMNSLKPEDTAVYYCAKGKKSSRSGIYNYWGQGTQVTVSS	high polyreactivity

Sequence	polyreactivity (PSR sort gate)
QVQLVESGGGLVQAGGSLRLSCAASGIFVDNAMGWYRQAPGKERELVAAITSSTDSTYYADSVKGRFAISRDNAKNTVYLQMNSLKPEDTAVDYCAVARPGGFYFLVHYGYGYWGQGTQVTVSS	low polyreactivity
QVQLVESGGGLVQAGGSLRLSSAASGGTFWIYAMGWYRQAPGKERELVSGITTSGATTYYADSVKGRFTISRDNAKNTVYLQMNRLKPEDTAVYYCAADEYYRYEYWGQGTQVTESS	low polyreactivity
QVQLVESGGGLVQAGGSLRLSCAASGSTFYYYAMGWYRQAPGKERELVAVITFSGGSTNYADSVKGRFTISRDNAKNTVYLQMNSLKPEDTAVYYCAADTYSYRYSNDYWGQGTQVTVSS	low polyreactivity
QVQLVESGGGLVQAGGSLRLSCAASGLTFPYYAMGWYRQAPGKERELVAAISNSGGSTYYADSVKGRFTISRDNAKNTVYLQMNIVKPEDTAVYYCAAYNSYSDYGYWGHGTQVTVSS	high polyreactivity
QVQLVESGAGLVQAGGSLRLSCAASGLTFALYAMGGYRQAPGKERELVAAIDWSGGITYYADSVKGRFTISRDNAKNTVYLQLNSLKPEDTAVYYCAARPSTFKYKYGYWGQGTQVTVSS	high polyreactivity
QVQLVESGGGLVQAGGSLRLSCAASGLIFSEYAMGWSRQAPGKETELVADIRSDGGSTYYADSVKGRFTISRDNAKNTVYLQINSLKPEDTAVYYCNAPYRRSAKFRRYGYDYWGQGTQVTVSS	high polyreactivity
QVQLVESGGGLVQAGGSLRLSCAASGFTFLSYTMGWYRQAPGKERELVASITASGTRTYYADSVKGRFTISRDNAKNTVYLQMNRLKPEDTSVYYCAARRSGSGSHDYGYWGQGTQVTVSS	low polyreactivity
QVQLVESGGGLVQAGGSLRLSCAASGFTFQSYAMGWYRQAPGKESELVAAISWSGGSTYYADSVKGRFTISRDNAKNTVYLEMNSLKPEDTAVYYCAADAPRSYRFGYWGQGTQVTVSS	high polyreactivity
QVQLVESGGGLDQAGGSLRLSCAAYGVPSLTMNMGWYRQAPGKERELFATIYSGGSTYYADSVKWRFTISRDNAKNTVYLQMNRLKPEDTAVYYCAARQSYYYSRSYIRGDYWGQGTQVTVSS	high polyreactivity
QVQLVESGGGLVQAGGSLRLSCAASGRPFSGYAMGWYRQAPGKERELVAAITSSGSSTYYADSVKGRFTISRDNAKNTVYLQMNSLKPEDTAVFYCAATPQAHSERYYYQRKYDYWGQGTQVTVSS	low polyreactivity
QVQLVESGGGLVQAGGSLRLSCAASGAMGWYRQAPGKERELVAAITQSGGSTRYADSVKGRFTISRDNAKNTVYLQMNSLKPEDTAVYYCKAEDPREWDPYYQDGFDFWGQGTQVTVSS	low polyreactivity
QVQLVESGGGLVQAGGSLRLSCDASGSIFVLNAMGWYRQAPGKERELVAAISYSGGSTYYADSVKGRFTISRDNAKNTVYLQMNSLKPEDTAVYYCAADLVSYYGYSSEYEYWGQGTQVTVSS	high polyreactivity
QVQLVESWGGLVQAGGSLRLRFAASVRTFVSNAMGWYRQAPGKERELVARITGSGGNTYYADSVKGRFTISRDNEKNTVYLQMNSLKPEDTAVYYCNSDVFRKFGSPSGYKSHRYDYWGQGTQVTVSS	low polyreactivity
QVQLVESGGGLVKAGGSLRLSCAASGSTFWYNAMGCYRQAPRKERELVAAITRGASTNYADSVKGRFTISRDNAKNTVYLQMNCLKPEDTAVYYCAGGPARWKGYYWGQGTQVTVSS	high polyreactivity
QVQLVESGGGLVQAGGSLRLSCAASGITLSANAMGWYRQAPGKERELVATITWSGGSTYYADSVKGRFTISRDNAKNTVYLQMNSLKPEDTAVYYCNARSYDEYPYYSYNYWGQGTQVTVSS	low polyreactivity
QVQLVESGGGLVQAGGSLRLSCAASGSLFQPNDRGWYRQAPGKERELVASIRGRGGDTYYADSVKGRFTISRDNAKNTVYLQMNSLKPEDTGGYDCAADYRWGQGTQVTVSS	low polyreactivity
QVQLVESGGGLVQAGGSLRLTCAASGLTFSYNAMGWYRQAPGKERELVAAITVSGGRTYYADSVKGRFTISRDNAKNTVYLQMNSLKPEDTAVYYCNADYDEGYYGYLRYDYDYWGQGTQVTVSS	high polyreactivity
QVQLQESGGRQVQAGGSLRLSCAASGSNSYASGMGWYRQAPRKEREFVARIDPGAITNYADSVKGRFTISHDNAQNTVYLQMKSLKPEDNAVYYCAARVSTTDSRRILRKYLYYVHFDYWGQGTQLTVSS	high polyreactivity
QVQLVESGGGLVQAGGSLRLTCAASGSTFAWYAMGWYRQAPGKERELVAAISRTGRTYYADSVKGRFTISRDNAKNTVYLQMNSLKPEDTAVYYCAARIERFYRDQRYDYWGQGTQVTVSS	high polyreactivity
QVQLVESGGGLVQAGGSLRLSCAASGSTFYWYAMGWYRQAPGKERELVAVITVRGGSTYYADSVKGRFTISRDNAKNTVYLQMNSLKPEDTAVYYCAAEPTSYLYKYWYDYWGEGTQVTVSS	low polyreactivity
QGQLVESGGGLVQAGGSLRLSCAASGRIFGHYAMGWYRQAPGKERELVAAIRWRGGSTYYADSVKGRFTISRDNAKNTVYLQMNSLKPEDTAVYYCARTNNGRFRIVDTRYDYWGQGNQVTVSS	low polyreactivity
